Reference: US20250051444A1 (published 2025)
Like-named read-outs stand apart in the source and are kept apart here.

T1: human LRRC15 (leucine-rich repeat containing protein 15) (human, UniProt Q8TF66 22-581)
T1 chain: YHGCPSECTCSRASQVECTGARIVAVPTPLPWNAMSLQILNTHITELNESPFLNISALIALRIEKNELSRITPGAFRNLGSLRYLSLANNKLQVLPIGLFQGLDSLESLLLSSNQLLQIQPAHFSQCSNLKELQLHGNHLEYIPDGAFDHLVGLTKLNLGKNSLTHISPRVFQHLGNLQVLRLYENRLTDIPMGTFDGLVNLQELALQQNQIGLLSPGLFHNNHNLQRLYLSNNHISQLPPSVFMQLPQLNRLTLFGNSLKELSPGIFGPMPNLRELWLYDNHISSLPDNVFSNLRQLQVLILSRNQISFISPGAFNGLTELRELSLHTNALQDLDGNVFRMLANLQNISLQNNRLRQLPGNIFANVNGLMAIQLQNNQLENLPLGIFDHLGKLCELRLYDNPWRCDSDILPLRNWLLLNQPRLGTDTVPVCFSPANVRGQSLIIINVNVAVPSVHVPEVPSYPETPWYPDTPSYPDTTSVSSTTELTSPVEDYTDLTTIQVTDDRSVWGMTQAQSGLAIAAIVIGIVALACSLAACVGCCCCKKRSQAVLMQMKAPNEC

T2: cynomolgus LRRC15 (cynomolgus, UniProt G7NYR2 22-581)
T2 chain: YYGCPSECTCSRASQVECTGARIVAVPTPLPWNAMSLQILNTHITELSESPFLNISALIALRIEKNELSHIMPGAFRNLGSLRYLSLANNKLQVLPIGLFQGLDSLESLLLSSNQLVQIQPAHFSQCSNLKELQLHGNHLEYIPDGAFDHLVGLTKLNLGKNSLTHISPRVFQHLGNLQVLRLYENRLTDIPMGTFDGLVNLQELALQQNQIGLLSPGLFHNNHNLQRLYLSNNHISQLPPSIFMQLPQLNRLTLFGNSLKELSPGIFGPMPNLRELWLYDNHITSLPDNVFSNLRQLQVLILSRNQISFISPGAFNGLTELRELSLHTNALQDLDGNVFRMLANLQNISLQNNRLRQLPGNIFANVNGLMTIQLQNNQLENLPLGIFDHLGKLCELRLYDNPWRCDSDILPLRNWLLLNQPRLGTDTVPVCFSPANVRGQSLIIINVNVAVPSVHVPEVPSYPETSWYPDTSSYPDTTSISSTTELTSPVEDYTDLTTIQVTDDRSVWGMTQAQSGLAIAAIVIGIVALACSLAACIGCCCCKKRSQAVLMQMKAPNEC


Assays:
Experiment in all cases: FACS binding to CHO cells
[1] = target: T1, human LRRC15 (leucine-rich repeat …)
cynomolgus LRRC15 [2] = target: T2, cynomolgus LRRC15
[3] = target: T1, human LRRC15 (leucine-rich repeat …)
cynomolgus LRRC15 [4] = target: T2, cynomolgus LRRC15

Binder	EC50 [1] [nM]	EC50 (cynomolgus LRRC15 [2]) [nM]	EC50 [3] [nM]	EC50 (cynomolgus LRRC15 [4]) [nM]
L15-03 (antibody, V domains shown) VH: QVQLVQSGAEVKKPGSSVKVSCKASGGTFSSYTISWVRQAPGQGLEWMGGIIPMFGTANYAQKFQGRVTITADESTSTAYMELSSLRSEDTAVYYCARGVALLATDFDYWGQGTLVTVSS VL: QSALTQPASVSGSPGQSITISCTGTSSDVGGYNYVSWYQQHPGKAPKLMIYEVSNRPSGVSNRFSGSKSGNTASLTISGLQAEDEADYYCQSWTHDNSVVFGGGTKLTVL	0.285	0.165		
L15-07 (antibody, V domains shown) VH: QVQLVQSGAEVKKPGSSVKVSCKASGGTFSTYAISWVRQAPGQGLEWMGGITPMFGTPNYAQKFQGRVTITADESTSTAYMELSSLRSEDTAVYYCARGDWYDYHFDYWGQGTLVTVSS VL: QSALTQPASVSGSPGQSITISCTGTSSDVGGYNYVSWYQQHPGKAPKLMIYEVSNRPSGVSNRFSGSKSGNTASLTISGLQAEDEADYYCQSYANRDNFVVFGGGTKLTVL	0.259	0.277		
315-L06C08 (bispecific antibody) not shown heavy: QVQLVESGGGLVKPGGSLRLSCAASGFTFSDYYMSWIRQAPGKGLEWVSDISVSSSYTNYADSVKGRFTISRDNAKNSLYLQMNSLRAEDTAVYYCARLGGYRSFFSTDDGDSLDYWGQGTLVTVSSASTKGPSVFPLAPSSKSTSGGTAALGCLVKDYFPEPVTVSWNSGALTSGVHTFPAVLQSSGLYSLSSVVTVPSSSLGTQTYICNVNHKPSNTKVDKRVEPKSCDKTHTCPPCPAPEFEGGPSVFLFPPKPKDTLMISRTPEVTCVVVDVSHEDPEVKFNWYVDGVEVHNAKTKPREEQYNSTYRVVSVLTVLHQDWLNGKEYKCKVSNKALPASIEKTISKAKGQPREPQVCTLPPSRDELTKNQVSLTCLVEGFYPSDIAVEWESNGQPENNYKTTPPVLDSDGSFFLYSDLTVDKSRWQQGNVFSCSVMHEALHNHYTQESLSLSPGK light: not shown			0.488	0.627
153-L06C (bispecific antibody) chain 1: not shown chain 2: EPKSCDKTHTCPPCPAPEFEGGPSVFLFPPKPKDTLMISRTPEVTCVVVDVSHEDPEVKFNWYVDGVEVHNAKTKPREEQYNSTYRVVSVLTVLHQDWLNGKEYKCKVSNKALPASIEKTISKAKGQPREPQVCTLPPSRDELTKNQVSLTCLVEGFYPSDIAVEWESNGQPENNYKTTPPVLDSDGSFFLYSDLTVDKSRWQQGNVFSCSVMHEALHNHYTQESLSLSPGK			1.15	1.48
L15-08 (antibody, V domains shown) VH: QVQLVESGGGLVKPGGSLRLSCAASGFTFSDYYMSWIRQAPGKGLEWVSDISVSSSYTNYADSVKGRFTISRDNAKNSLYLQMNSLRAEDTAVYYCARLGGYRSFFSTDDGDSLDYWGQGTLVTVSS VL: not shown	0.633	0.19		
L15-06 (antibody, V domains shown) VH: EVQLLESGGGLVQPGGSLRLSCAASGFTFSSYYMSWVRQAPGKGLEWVADISVSGSYTNYADSVKGRFTISRDNSKNTLYLQMNSLRAEDTAVYYCARIGSYRSFFSTDDGDSLDYWGQGTLVTVSS VL: not shown	0.376	0.239		
